{"source": "paper PMC12403663", "key": {"[1]": {"target": "human serum albumin (HSA) (Homo sapiens, UniProt P02768 25-609)", "sequence (P02768 25-609)": "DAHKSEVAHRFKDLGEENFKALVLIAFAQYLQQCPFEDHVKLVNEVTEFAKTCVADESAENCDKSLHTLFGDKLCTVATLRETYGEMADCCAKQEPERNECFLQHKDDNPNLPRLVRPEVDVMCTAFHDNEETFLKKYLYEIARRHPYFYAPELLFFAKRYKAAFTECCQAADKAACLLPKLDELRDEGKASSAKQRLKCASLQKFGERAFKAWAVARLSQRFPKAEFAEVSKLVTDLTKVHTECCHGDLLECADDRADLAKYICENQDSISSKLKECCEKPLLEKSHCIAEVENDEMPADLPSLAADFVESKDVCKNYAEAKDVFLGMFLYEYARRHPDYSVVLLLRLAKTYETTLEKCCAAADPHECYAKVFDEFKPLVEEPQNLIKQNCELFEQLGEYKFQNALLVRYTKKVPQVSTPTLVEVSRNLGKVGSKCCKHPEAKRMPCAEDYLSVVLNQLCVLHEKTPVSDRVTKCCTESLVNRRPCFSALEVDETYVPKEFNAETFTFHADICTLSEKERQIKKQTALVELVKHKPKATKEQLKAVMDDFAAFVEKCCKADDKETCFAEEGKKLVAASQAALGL", "assay": "electrochemical aptasensor"}, "[2]": {"target": "retinol-binding protein 4 (RBP4, also printed RPB4) (UniProt P02753 19-201)", "assay": "electrochemical aptasensor"}}}
{"binder": "TGCGGTTGTAGTACTCGTGGCCG (ssDNA, 5' Amino C6; 3' Thiol C6 SS)", "note": "[HSA-binding aptamer]", "values": [{"measurement": "binding result", "setting": "[1]", "value": "binds"}]}
{"binder": "RBP4-binding aptamer (ssDNA, 5' Amino C6; 3' Thiol C6 SS) DNA: ATACCAGCTTATTCAATTACAGTAGTGAGGGGTCCGTCGTGGGGTAGTTGGGTCGTGGAGATAGTAAGTGC", "values": [{"measurement": "binding result", "setting": "[2]", "value": "binds"}]}
